The values below come from publication PMC2114473.

What all share (test): radioligand binding
In experiment [1] the target is type I collagen, pepsinized.
In experiment [2] the target is type II collagen, pepsinized.
The target in experiment [3] is type III collagen, pepsinized.

For “human thrombospondin (TSP) (from UniProt P07996 19-1170) (natural protein)”, the results for the cpm bound in experiment [1], in experiment [2] and in experiment [3] were 5320 cpm, 5320 cpm and 4940 cpm, respectively.
